This note sets out measurements from patent US20140370037A1 (published 2014).

Assay [1] deals with T1, human DLL3 antigen (human, UniProt Q9NYJ7 27-492).
T1 chain: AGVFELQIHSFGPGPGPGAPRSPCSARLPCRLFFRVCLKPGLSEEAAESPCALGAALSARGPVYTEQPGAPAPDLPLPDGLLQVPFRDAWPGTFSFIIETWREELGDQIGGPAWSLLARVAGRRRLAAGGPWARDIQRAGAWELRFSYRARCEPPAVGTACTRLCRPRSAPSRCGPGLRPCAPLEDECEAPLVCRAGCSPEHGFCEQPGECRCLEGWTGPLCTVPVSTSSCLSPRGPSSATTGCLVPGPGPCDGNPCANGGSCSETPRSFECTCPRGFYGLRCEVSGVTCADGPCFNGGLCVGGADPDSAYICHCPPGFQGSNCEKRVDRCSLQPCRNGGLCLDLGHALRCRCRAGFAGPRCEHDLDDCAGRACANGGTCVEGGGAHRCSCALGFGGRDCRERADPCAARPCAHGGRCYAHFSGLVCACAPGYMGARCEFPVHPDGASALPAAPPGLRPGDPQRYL
Briefly: SPR.

The target of assay [2] is T1, human DLL3 antigen. Briefly: Biacore SPR.
Assay [3] concerns the target T1, human DLL3 antigen. Briefly: ForteBio.
For assay [4], the target named is T1, human DLL3 antigen. Briefly: ForteBio.

B1: hSC16.34 (antibody, V domains shown)
VH: QVQLVQSGAEVKKPGASVKVSCKASGYTFTNYGMNWVRQAPGQRLEWMGWINTYTGDPTYADDFKGRVTITRDTSASTAYMELSSLRSEDTAVYYCARIGGNSPSDYWGQGTTVTVSS
VL: DIQMTQSPSSLSASVGDRVTITCKASQSVSNDVAWYQQKPGKVPKLLIYYASNRYSGVPSRFSGSGSGTDFTLTISSLQPEDVATYFCQQDYSSPWTFGGGTKVEIK
Consider B1, for which, in assay [1], the dissociation constant Kd is 0.9 nM.

B2: hSC16.56 (antibody, V domains shown)
VH: QVQLVQSGAEVKKPGASVKVSCKASGYTFTNYGMNWVRQAPGQGLEWMGWINTYTGEPTYADDFKGRVTMTTDTSTSTAYMELRSLRSDDTAVYYCARIGDSSPSDYWGQGTLVTVSS
VL: EIVMTQSPATLSVSPGERATLSCKASQSVSNDVVWYQQKPGQAPRLLIYYASNRYTGIPARFSGSGSGTEFTLTISSLQSEDFAVYYCQQDYTSPWTFGQGTKLEIKR
For the molecule B2, the equilibrium dissociation constant (Kd) in assay [1] worked out at 0.5 nM.

B3: SC16.13 (antibody, V domains shown)
VH: QVTLKESGPGILQPSQTLSLTCSFSGFSLSTSGMGVGWIRQPSGKGLEWLAHIWWDDVKRYNPALKSRLTISKDTSSSQVFLKIASVDTADTATYYCARIVSFDNDVVSAMDYWGQGTSVTVSS
VL: QIVLTQSPALVSASPGEKVTMTCSASSSVSYMYWYQQKPRSSPKPWIYLTSNLASGVPARFSGSGSGTSYSLTISSMEAEDAATYYCQQWRSNPFTFGSGTKLEIK
Consider B3, for which the results for the Kd in assay [2] and in assay [1] were 2 nM and 0.3 nM, respectively.

B4: SC16.65 (antibody, V domains shown)
VH: QVTLKESGPGILQPSQTLSLTCSFSGFSLSTSGMGVGWIRQPSGKGLEWLALIWWDDVKRYNPALKSRLTISKDASSSQVFLKIASVDTADTATYYCARIASYDYDVVYAMDYWGQGTSVSVSS
VL: QIVLTQSPALMSASPGEKVTMTCSVTSSVSYMYWYQQKPRSSPKPWIYLTSNLASGVPARFSGSGSGTSYSLTISSVEAEDAATYYCQQWRNNPFTFGSGTKVEIK
B4: in assay [2], the equilibrium dissociation constant (Kd) came to 0.9 nM.

B5: SC16.34 (antibody, V domains shown)
VH: QIQLVQSGPELKRPGETVKISCKASGYTFTNYGMNWVKQAPGKGLKWMGWINTYTGDPTYADDFKGRFAFSLETSASTAYLQINNLKNEDTATYFCARIGGNSPSDYWGQGTSLTVSS
VL: SIVMTQTPKFLLVSAGDRVTITCKASQSVSNDVAWYQQKPGQSPKLLIYYASNRYSGVPDRFTGSGYGTDFTFTISTVQAEDLAVYFCQQDYSSPWTFGGGTKLEIK
For the molecule B5, the Kd in assay [2] was found to be 0.2 nM; in assay [1], 0.6 nM.

B6: SC16.56 (antibody, V domains shown)
VH: QIQLVQSGPELKKPGETVKISCKASGYTFTNYGMNWVKQAPGKGLKWMAWINTYTGEPTYADDFKGRFAFSLETSASTASLQIINLKNEDTATYFCARIGDSSPSDYWGQGTTLTVSS
VL: SIVMTQTPKFLLVSAGDRVTITCKASQSVSNDVVWYQQKPGQSPKLLIYYASNRYTGVPDRFAGSGYGTDFSFTISTVQAEDLAVYFCQQDYTSPWTFGGGTKLEIR
On to B6, for which the Kd in assay [2] amounted to 1 nM; in assay [1] it was 0.5 nM.

B7: hSC16.25 (antibody, V domains shown)
VL: EIVLTQSPDFQSVTPKEKVTITCSASSSVSYMHWYQQKPDQSPKLLIKDSSKLASGVPSRFSGSGSGTDFTLTINSLEAEDAATYYCQQWSSNPLTFGQGTKLEIK
V domain: QITLKESGPTLVKPTQTLTLTCTFSGFSLSTSGMGVGWIRQPPGKALEWLTDIWWDDNKYYNPSLKSRLTITKDTSKNQVVLTMTNMDPVDTATYYCARRVNYYYDPYYAMDYWGQGTTLVTVS
B7 gave a dissociation constant Kd in assay [1] of less than 0.2 nM.

B8: SC16.4 (antibody, V domains shown)
VH: QIQLVQSGPELKKPGETVKISCKASGYTFTDYSMHWVKQAPGKGLKWMGWINTETGEPGYADDFKGRFAFSLETSASTAYLQINNLKNEDTATYFCARYDGYAMDYWGQGTSVTVSS
VL: DIQMTQTTSSLSASLGDRVTISCRASQDISNYLNWYQQKPDGTVKLLIYYTSRLHSGVPSRFSGSGSGTDYSLTISNLELEDIATYFCQQGDMLPWTFGGGTKLEIK
In the case of B8, binding in assay [3] was characterised by a dissociation constant (Kd) of 0.5 nM. In other words, the sub-nanomolar range.

B9: SC16.39 (antibody, V domains shown)
VH: EVKLEESGGGLVQFGGSMKLSCAASGFTFSDAWMDWVRQSPEKGLEWVAEIRNKANNHATYYPESVKGRFTISRDDSKSRVYLQMNNLRAEDTGIYYCTGYSSFAYWGQGTLVTVSA
VL: DIQMTQTTSSLSASLGDRVTISCRASQDVINYLNWYQQKPDGTVKLLIYYTSRLHSGVPSRFSGSGSRTDYSLTISNLEPEDIATYYCQQYSERPYTFGGGTKLEIK
B9 had a Kd in assay [4] of 1 nM.

B10: hSC16.15 (antibody, V domains shown)
VH: QVQLVQSGAEVKKPGASVKVSCKASGYTFTRYWIHWIRQAPGQGLEWMGYINPTTVYTEFNQNFKDRVTMTRDTSTSTVYMELSSLRSEDTAVYYCARGGSNFFDYWGQGTTVTVSS
VL: AIQLTQSPSSLSASVGDRVTITCRASENIYYNLAWYQQKPGKAPKLLIYTANSLEDGVPSRFSGSGSGTDFTLTISSLQPEDFATYFCKQAYDVPPTFGGGTKLEIK
With B10, the Kd in assay [1] came to 0.2 nM.

B11: SC16.25 (antibody, V domains shown)
VH: QVTLKESGPGILQPSQTLSLTCSFSGFSLSTSGMGVGWIRQPSGEGLEWLTDIWWDDNKYYNPSLKSRLTISKDTSSNQVFLNITSVDTADTATYYCARRVNYYYDPYYAMDYWGQGTSVTVSS
VL: QIVLTQSPAIMSASPGEKVTMTCSASSSVSYMHWYQQKSGTSPKRWIYDSSKLASGVPARFSGSGSGTSYSLTISSMEAEDAATYYCQQWSSNPLTFGAGTKLELK
For the molecule B11, the Kd in assay [2] is 0.2 nM; in assay [1], less than 0.2 nM.

B12: SC16.10 (antibody, V domains shown)
VH: QVTLKESGPGILQSSQTLSLTCSFSGFSLSTSGMGVGWIRQPSGKGLEWLAHIWWDDVKRYNPVLKSRLTISKDTSSSQVFLKIASVDTADTATYYCARLVDDLYYFDYWGQGTTLTVSS
VL: QIVLTQSPAIMSASLGERVTMTCTASSSVSSSYLHWYQQKPGSSPKLWIYSTSNLASGVPTRFSGSGSGTSYSLTISSMEAEDAATYYCHQYHRSPFTFGSGTKLEIK
In turn, B12 registered a Kd in assay [3] of 4 nM.

B13: SC16.15 (antibody, V domains shown)
VH: QVQLQQSGAELAKPGASVKMSCKASGYTFTRYWIHWIKQRPGQGLEWIGYINPTTVYTEFNQNFKDKATLTADKSSTTASMQLSSLTSEDSAVYYCARGGSNFFDYWGQGTTLTVSS
VL: DIQMTQSPASLAASVGETVAITCRASENIYYNLAWYQQKQGKSPQLLIYTANSLEDGVPSRFSGSGSGTQYSLKINSMQPEDSATYFCKQAYDVPPTFGGGTKLEIK
As to B13, binding in assay [2] was put at a Kd of 0.5 nM.

B14: SC16.8 (antibody, V domains shown)
VH: QAQLQQSGAELVRPGTSVKVSCKASGYAFTNYLIEWVKQRPGQGLEWIGVINPGTGGTNYNENFKGKATLTADKSSSTAYMQLSSLTSDDSAVYFCARSPYDYHEGAMDYWGQGTSVTVSS
VL: EIQMTQSPSSMSASLGDRITITCQATQDIVKNLNWYQQKPGKPPSFLIYYAIELAEGVPSRFSGSGSGSDYSLTISNLESEDFADYYCLQFYEFPFTFGAGTKLELK
On to B14, for which the Kd in assay [3] stood at 0.5 nM.

B15: SC16.67 (antibody, V domains shown)
VH: EVQLVETGGGLVQPKGSLKLSCAVSAFTFTTYAMNWVRQAPGKGLEWVARIRNKSNNYATYYADSVKDRFTISRDDSQSMLYLQMNNLKIEDTAMYYCVFYYDYVYWGQGTLVTVSA
VL: QAVVTQESALTTSPGETVTLTCRSSTGAVTTSNYANWIQEKPDHLFTGLIGGTNNRAPGVPARFSGSLIGDKAALTITGAQTEDEAIYFCGLWYSNHLVFGGGTKLTVL
B15: binding in assay [3] was put at a Kd of 0.5 nM. That is a sub-nanomolar value.

B16: hSC16.13 (antibody, V domains shown)
VH: QITLKESGPTLVKPTQTLTLTCTFSGFSLSTSGMGVGWIRQPPGKALEWLAHIWWDDVKRYSPSLKSRLTITKDTSKNQVVLTMTNMDPVDTATYYCARIVSFDNDVVSAMDYWGQGTLVTVSS
VL: DIQMTQSPSSLSASVGDRVTITCSASSSVSYMYWYQQKPGKAPKLLIYLTSNLASGVPSRFSGSGSGTDFTLTISSLQPEDFATYYCQQWRSNPFTFGQGTKLEIKR
Turning to B16, binding in assay [1] was characterised by a dissociation constant (Kd) of 0.5 nM.
